In paper PMC9399289, “Extended DNA-binding interfaces beyond the canonical SAP domain contribute to the function of replication stress regulator SDE2 at DNA replication forks”:

Columns and labels:
GST-SDE2 ΔSAP+CTT = target: T1, GST-SDE2 ΔSAP+CTT (human, UniProt Q6IQ49 1-394, del395-451); assay: EMSA; 50-200 nM protein; EMSA: 10 mM Tris-HCl pH 7.5, 50 mM NaCl, 0.5 mM DTT, 0.05 mM EDTA, 3% glycerol, 0.05 mg/ml BSA (or 50 mM Na/K PO4 pH 6.0, 50 mM NaCl, 5 mM DTT), on ice; anisotropy: 50 mM Na/K PO4 pH 6.0, 50 mM NaCl, 5 mM DTT, 1 uM DNA; pull-down: 10 mM Tris-HCl pH 7.5, 100 mM NaCl, 0.2 mM EDTA, 1 mM DTT, 10% glycerol, 0.01% NP-40, 10 ug/ml BSA, RT; NMR: 50 mM Na/K phosphate, 50 mM NaCl, 5 mM DTT, 10% D2O; settings: protein: recombinant; tags: N-term GST; label: 5' 6-FAM
T1 sequence: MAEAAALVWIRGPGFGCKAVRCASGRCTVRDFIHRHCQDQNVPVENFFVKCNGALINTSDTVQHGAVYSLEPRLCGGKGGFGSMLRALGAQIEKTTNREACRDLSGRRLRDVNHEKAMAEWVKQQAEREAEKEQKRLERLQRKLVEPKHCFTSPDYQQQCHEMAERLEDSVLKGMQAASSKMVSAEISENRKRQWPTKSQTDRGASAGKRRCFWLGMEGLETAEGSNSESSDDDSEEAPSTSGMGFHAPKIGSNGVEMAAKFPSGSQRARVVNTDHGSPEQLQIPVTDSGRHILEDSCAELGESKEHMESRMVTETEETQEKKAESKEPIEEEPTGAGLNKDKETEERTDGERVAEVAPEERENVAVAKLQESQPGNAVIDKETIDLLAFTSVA

GST-SDE2-FLAG WT = target: T2, GST-SDE2-FLAG WT (human, UniProt Q6IQ49 1-451); assay: fluorescence anisotropy; EMSA: 10 mM Tris-HCl pH 7.5, 50 mM NaCl, 0.5 mM DTT, 0.05 mM EDTA, 3% glycerol, 0.05 mg/ml BSA (or 50 mM Na/K PO4 pH 6.0, 50 mM NaCl, 5 mM DTT), on ice; anisotropy: 50 mM Na/K PO4 pH 6.0, 50 mM NaCl, 5 mM DTT, 1 uM DNA; pull-down: 10 mM Tris-HCl pH 7.5, 100 mM NaCl, 0.2 mM EDTA, 1 mM DTT, 10% glycerol, 0.01% NP-40, 10 ug/ml BSA, RT; NMR: 50 mM Na/K phosphate, 50 mM NaCl, 5 mM DTT, 10% D2O; settings: protein: recombinant; tags: N-term GST, C-term FLAG; label: 5' 6-FAM
T2 sequence: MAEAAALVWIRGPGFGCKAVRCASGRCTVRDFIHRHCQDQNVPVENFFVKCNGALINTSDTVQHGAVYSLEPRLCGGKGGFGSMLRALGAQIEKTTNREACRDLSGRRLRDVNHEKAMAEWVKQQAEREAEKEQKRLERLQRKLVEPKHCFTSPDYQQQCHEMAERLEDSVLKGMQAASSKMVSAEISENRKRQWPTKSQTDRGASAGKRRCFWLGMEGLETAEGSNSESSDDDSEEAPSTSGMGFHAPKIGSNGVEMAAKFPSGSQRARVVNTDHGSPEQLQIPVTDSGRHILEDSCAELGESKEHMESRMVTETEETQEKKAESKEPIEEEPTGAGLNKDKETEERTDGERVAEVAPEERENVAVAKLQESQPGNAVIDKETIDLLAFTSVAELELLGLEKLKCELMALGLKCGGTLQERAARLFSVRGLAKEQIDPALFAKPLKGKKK

GST-SDE2SAP = target: T3, GST-SDE2SAP (human, UniProt Q6IQ49 350-451); assay: as above; settings: protein: recombinant; tags: N-term GST; label: 5' 6-FAM
T3 sequence: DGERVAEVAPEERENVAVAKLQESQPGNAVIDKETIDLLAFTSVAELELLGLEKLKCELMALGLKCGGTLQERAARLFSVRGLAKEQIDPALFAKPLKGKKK

GST-SDE2-FLAG ΔSAP = target: T4, GST-SDE2-FLAG ΔSAP (human, UniProt Q6IQ49 1-451, del395-427); assay: EMSA; 200 nM protein, 50 nM DNA; EMSA: 10 mM Tris-HCl pH 7.5, 50 mM NaCl, 0.5 mM DTT, 0.05 mM EDTA, 3% glycerol, 0.05 mg/ml BSA (or 50 mM Na/K PO4 pH 6.0, 50 mM NaCl, 5 mM DTT), on ice; anisotropy: 50 mM Na/K PO4 pH 6.0, 50 mM NaCl, 5 mM DTT, 1 uM DNA; pull-down: 10 mM Tris-HCl pH 7.5, 100 mM NaCl, 0.2 mM EDTA, 1 mM DTT, 10% glycerol, 0.01% NP-40, 10 ug/ml BSA, RT; NMR: 50 mM Na/K phosphate, 50 mM NaCl, 5 mM DTT, …; settings: protein: recombinant; tags: N-term GST, C-term FLAG; label: 5' 6-FAM
T4 sequence: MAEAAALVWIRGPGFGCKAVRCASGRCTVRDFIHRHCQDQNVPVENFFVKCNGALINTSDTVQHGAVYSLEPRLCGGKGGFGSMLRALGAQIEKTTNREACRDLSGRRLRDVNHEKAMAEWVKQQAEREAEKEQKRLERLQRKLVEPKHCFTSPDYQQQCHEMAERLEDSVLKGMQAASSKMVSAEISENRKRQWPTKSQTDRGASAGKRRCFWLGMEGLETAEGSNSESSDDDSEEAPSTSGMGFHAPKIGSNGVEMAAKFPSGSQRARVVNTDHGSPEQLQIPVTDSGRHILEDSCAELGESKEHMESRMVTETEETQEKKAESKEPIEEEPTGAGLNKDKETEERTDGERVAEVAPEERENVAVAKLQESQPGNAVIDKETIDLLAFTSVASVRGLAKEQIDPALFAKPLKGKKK

GST-SDE2 CGTKK = target: T5, GST-SDE2 CGTKK (human, UniProt Q6IQ49 1-451, C415A;G417S;T418V;K444A;K447A); assay: EMSA; 50-200 nM protein, 20 nM DNA; EMSA: 10 mM Tris-HCl pH 7.5, 50 mM NaCl, 0.5 mM DTT, 0.05 mM EDTA, 3% glycerol, 0.05 mg/ml BSA (or 50 mM Na/K PO4 pH 6.0, 50 mM NaCl, 5 mM DTT), on ice; anisotropy: 50 mM Na/K PO4 pH 6.0, 50 mM NaCl, 5 mM DTT, 1 uM DNA; pull-down: 10 mM Tris-HCl pH 7.5, 100 mM NaCl, 0.2 mM EDTA, 1 mM DTT, 10% glycerol, 0.01% NP-40, 10 ug/ml BSA, RT; NMR: 50 mM Na/K phosphate, 50 mM NaCl, 5 mM DTT, …; settings: protein: recombinant; tags: N-term GST; label: 5' 6-FAM
T5 sequence: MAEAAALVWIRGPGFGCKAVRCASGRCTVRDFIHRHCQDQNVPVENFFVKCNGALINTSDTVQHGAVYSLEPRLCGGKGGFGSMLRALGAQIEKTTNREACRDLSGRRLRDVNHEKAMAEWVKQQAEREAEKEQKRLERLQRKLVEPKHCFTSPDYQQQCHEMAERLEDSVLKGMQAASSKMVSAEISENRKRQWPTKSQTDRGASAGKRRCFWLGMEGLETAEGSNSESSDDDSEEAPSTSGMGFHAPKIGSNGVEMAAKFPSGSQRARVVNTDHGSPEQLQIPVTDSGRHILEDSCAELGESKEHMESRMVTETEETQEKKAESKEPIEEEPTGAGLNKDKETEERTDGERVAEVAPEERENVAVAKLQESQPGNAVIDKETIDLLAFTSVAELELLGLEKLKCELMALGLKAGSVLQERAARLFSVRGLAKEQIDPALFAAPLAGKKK

B1: 60-mer ssDNA (EMSA1) (ssDNA)
DNA: GACGCTGCCGAATTCTACCAGTGCCTTGCTAGGACATCTTTGCCCACCTGCAGGTTCACCC
binding result (GST-SDE2 ΔSAP+CTT): no binding
Kd (GST-SDE2-FLAG WT): ~1.1 µM
Kd (GST-SDE2SAP): 1.77 ± 0.41 µM
binding result (GST-SDE2-FLAG ΔSAP): no binding
binding result (GST-SDE2 CGTKK): no binding
